# Experimental data reported in the supplement of paper PMC10126150.
# ± gives the standard deviation of the averaged measurements.
# System: ATP
# Test: switch fluorescence ratio, 500 uM ATP over buffer (Cy3 cluster intensity, sum of 5 cycles each) (fold (ratio)); higher = stronger signal-on switching upon ATP binding; sequences stand for … in TCGTCGGCAGCGTCAGATGTGTATAAGAGACAGTTTTTTTTTTTTTTTTTTTTTTTTT…TC
# Details: aptamer strand: ATP DNA aptamer (quencher-CACCTGGGGGAGTATTGCGGAGGAAGG + anchor), 100 nM annealed; ATP concentration: 500 uM
# In short: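 For every switch-domain sequence, the fluorescence ratio is the mean of per-cluster values, each being summed target-cycle Cy3 intensity over summed buffer-cycle Cy3 intensity. Clusters outside 100-1000 RFU were excluded. On a modified Illumina MiSeq flow-cell, the Cy3-labelled switching-strand clusters were annealed to 100 nM quencher-labelled ATP aptamer, imaged in selection buffer and then after 15 min with 500 uM ATP at 22 °C. Five such cycles were run, with NaOH stripping and re-annealing between them.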
# 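Also: ATP exposure 15 min at 22 °C before imaging.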
row,Sequence,switch fluorescence ratio
1,TTTAGTCGGT,0.9638 ± 0.0056
2,ACAGTTTTCT,1.01 ± 0.024
3,ATGTTGAGCT,1.019 ± 0.0023
4,CGGAGGTATA,1.14 ± 0.017
5,GTAGGGGAAG,1.01 ± 0.017
6,CAAGGCATTG,0.978 ± 0.02
7,TGTGTGTAAG,1.001 ± 0.0067
8,GTAGGGGGTC,1.01 ± 0.027
9,GGGTCTCAGT,0.994 ± 0.032
10,CGTCGTTCTC,1.02 ± 0.07
11,TACGGTGGGC,0.977 ± 0.018
12,ACTTTTGCGG,1.021 ± 0.0092
13,ATTGTTCTGG,1.004 ± 0.0021
14,ATCCTTTCTT,1.003 ± 0.0062
15,ATGATCAAAT,1 ± 0.054
16,CCGGGGAACA,1.004 ± 0.0069
17,CCTTACATCG,1.12 ± 0.044
18,TACAATTTGA,0.954 ± 0.018
19,GGATGTTCGT,0.9911 ± 0.0083
20,CACCCGGGGT,1.2099 ± 0.00019
21,GTTGTTAGGG,1 ± 0.0046
22,GATAGGGGAC,1.03 ± 0.039
23,TATGTGAGGC,0.993 ± 0.011

row,Sequence,switch fluorescence ratio
1,GAGGGTGAGT,0.9809 ± 0.0054
2,CGTGATTGCT,1.03 ± 0.074
3,GGTTGGGCGA,0.986 ± 0.021
4,GTTTTCTGGA,0.9988 ± 0.0057
5,TTTCACTATT,1.01 ± 0.026
6,CATGGGCAGC,0.997 ± 0.016
7,AAGGGAAGGC,1 ± 0.018
8,TTTTATAATT,1.04 ± 0.089
9,AATCGGGGCT,0.992 ± 0.013
10,TGGCTCCCGC,1.089 ± 0.0041
11,GTTTAAATCC,0.989 ± 0.05
12,ATTAGCACGT,1.023 ± 0.0031
13,ATTGGGGCTT,1.01 ± 0.018
14,CAGGCTGTCG,1.02 ± 0.036
15,AGGTCAAGAA,1.07 ± 0.079
16,GGCATTGAGG,0.988 ± 0.04
17,ATGTCCGGTT,1 ± 0.019
18,TAAACCGAGC,1.73 ± 0.27
19,TAGGTCAGAA,0.989 ± 0.025
20,GACGTAACCT,1.5 ± 0.032
21,GGAAGTAGAT,1.01 ± 0.028
22,TATCGAGGGT,0.9698 ± 0.0094
23,TTTGGTTTGC,0.992 ± 0.0039

row,Sequence,switch fluorescence ratio
1,TCCCTTAGAG,1.037 ± 0.0024
2,AAATATTGCG,0.997 ± 0.034
3,TGGTTATTAC,1.037 ± 0.0094
4,AAGGGCTCTG,1.01 ± 0.046
5,TAACGGGTCG,0.937 ± 0.06
6,TATCATGGTG,1.05 ± 0.058
7,TGGCTGGAAC,0.981 ± 0.021
8,GGCGGATATT,0.9975 ± 0.0069
9,CCCAATTTCT,1.05 ± 0.045
10,GCGTATGGGG,0.977 ± 0.027
11,GTTTTAGGAG,0.995 ± 0.043
12,AAAGTTGTCG,0.969 ± 0.051
13,GCTGATACTT,1.07 ± 0.02
14,GTGTTTAAAG,0.98 ± 0.02
15,ACTTTCGGTT,1.003 ± 0.0023
16,AGGAAAATGT,0.984 ± 0.041
17,GTGTTTGGGA,0.997 ± 0.033
18,CGCAGGTTAG,1.11 ± 0.025
19,GGTGTGCCGT,0.989 ± 0.1
20,GGTTTCGCCG,0.985 ± 0.052
21,AGACGAAGT,1 ± 0.019
22,CATGTATGT,1.07 ± 0.03
23,TTTTCGGGGA,0.978 ± 0.018

row,Sequence,switch fluorescence ratio
1,AATGGTAAGG,0.963 ± 0.033
2,TGGTGAAAAG,0.97 ± 0.059
3,AGGGGGATGT,0.974 ± 0.05
4,TCAGGGTAGG,1.04 ± 0.033
5,GAAGTCGTT,0.973 ± 0.0057
6,CTATTAGGGT,0.999 ± 0.052
7,GTGTGGCAGG,0.992 ± 0.024
8,CCGGATACGT,1.39 ± 0.086
9,AATATAAATA,1.019 ± 0.0072
10,AAGTTTTCCG,0.964 ± 0.062
11,TCTATTTGTA,0.9993 ± 0.0071
12,TTGATACGTG,1.01 ± 0.058
13,ACATTTGGGG,1.03 ± 0.066
14,CTGTCCAGTT,1.02 ± 0.048
15,TTCTGGTCTA,0.986 ± 0.011
16,TATCCCAGGC,1.31 ± 0.032
17,TGACAATCCT,1.05 ± 0.016
18,ACGGGTTAAT,1.01 ± 0.026
19,ATTGAATAGG,1.0089 ± 0.0003
20,TTGTTAGGGG,0.986 ± 0.019
21,TTAGAACACA,0.983 ± 0.0063
22,AGAAGAAGTA,0.9955 ± 0.0035
23,TTTAGGATTG,0.98 ± 0.034

row,Sequence,switch fluorescence ratio
1,CGCCGCACTT,3.93 ± 1.1
2,AGGCCGAGGG,0.985 ± 0.012
3,CGGTTCGTGG,1.004 ± 0.0068
4,AAAGAGGCAA,1.03 ± 0.047
5,CGGGGTTTAG,0.992 ± 0.051
6,TAGGTGCTTT,1.079 ± 0.0059
7,AATTTGTTTG,1 ± 0.013
8,AAGTTGTCTT,0.999 ± 0.027
9,GGGGTGGGTG,1.03 ± 0.039
10,GCTAGATCAC,1.02 ± 0.025
11,AGAGGAGTGC,0.958 ± 0.056
12,TAAGAAAAGT,0.9745 ± 0.0014
13,CGGCCGTTCG,1.1 ± 0.14
14,AAGGGGGTTG,0.975 ± 0.044
15,TCGTGGGAAG,0.9721 ± 0.0062
16,CGGGGGTTAT,1.03 ± 0.063
17,ACGCGACACC,1.25 ± 0.058
18,TGATTATTTT,0.991 ± 0.016
19,ATTAGTCGCT,0.978 ± 0.019
20,GTCTGTATGT,1.015 ± 0.0028
21,GGCGGGGGCC,0.969 ± 0.016
22,CTGTTAGGCG,0.9676 ± 0.0092
23,AAACCCAAAG,1.02 ± 0.045

row,Sequence,switch fluorescence ratio
1,TTTGGTTTAT,0.982 ± 0.04
2,TTTGGGAACT,1 ± 0.021
3,GGGGGCACTT,1.008 ± 0.0045
4,TAAAGGCTAT,1 ± 0.026
5,GGGGTTAGCT,0.987 ± 0.018
6,CAGTGGGGGT,1 ± 0.03
7,ATGAGGTGGG,0.992 ± 0.036
8,TCAGGGGTTT,1.3 ± 0.53
9,GTATAAGGTT,0.98006 ± 0.00074
10,GACATTAAGG,1.01 ± 0.084
11,AGGGTCGACT,1.033 ± 0.0095
12,TAAATCTAGA,1.016 ± 0.01
13,TCATATTGAT,0.984 ± 0.051
14,CGTTTTCCAG,0.985 ± 0.03
15,ATTGGTGCT,1.001 ± 0.007
16,GATTTAATTG,1.03 ± 0.09
17,CGGGGGATCC,1.13 ± 0.16
18,GAGCTAAGGA,0.981 ± 0.029
19,GGTGCGGGAC,1.16 ± 0.12
20,ACCAAGGGGT,1.02 ± 0.054
21,TTAATAAGGG,1 ± 0.024
22,CTTTTTTGCC,1.02 ± 0.019
23,TTGAAGTTAT,0.9897 ± 0.0021

row,Sequence,switch fluorescence ratio
1,GATTAAATGT,0.992 ± 0.014
2,GACGAAAATC,1.2 ± 0.032
3,TGCAGGTCTT,1 ± 0.052
4,CATTTTTTGG,0.998 ± 0.019
5,AAGGGGGGCC,1.01 ± 0.089
6,GCGGGGGACT,0.997 ± 0.016
7,TTCAATTGTT,1.02 ± 0.017
8,ATAGGCTATA,0.976 ± 0.025
9,GACGGGGAGG,0.9995 ± 0.0092
10,CGGTTTGACA,0.9954 ± 0.0092
11,ATTCGGTCGA,0.976 ± 0.039
12,GCTTTCCCTT,1.022 ± 0.01
13,TTAAGTTTAC,1.01 ± 0.038
14,AGGATACCGC,1.12 ± 0.048
15,AACGTGGTTT,1.01 ± 0.025
16,GTTATACGAA,1.028 ± 0.0085
17,TTCGCGAGGT,2.67 ± 2.3
18,TTTGTTACAG,1 ± 0.031
19,TTTGATAAAG,1.03 ± 0.092
